Laboratory results published in patent publication US20120316071A1 (published 2012).

T1: rHuman Erythropoietin R/Fc Chimera, CF (R&D Systems Cat#963-ER) (human, UniProt P19235 25-250)
T1 construct: Bought recombinant protein; also called EPO R; EPO R/Fc; Fc part of the bought chimera not given
T1 sequence (looked up): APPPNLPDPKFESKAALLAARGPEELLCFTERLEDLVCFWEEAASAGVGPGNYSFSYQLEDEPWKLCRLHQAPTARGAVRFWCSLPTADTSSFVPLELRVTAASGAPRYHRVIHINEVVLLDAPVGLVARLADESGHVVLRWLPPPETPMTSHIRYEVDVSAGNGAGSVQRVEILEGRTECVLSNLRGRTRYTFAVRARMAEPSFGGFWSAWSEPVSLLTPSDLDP


Tests used:
[1] = target: T2, Recombinant Human DLL4 (delta-like protein 4) (human, UniProt Q9NR61 27-524); test: ECL binding assay on immobilized DLL4, Fab at 0.04 µM
T2 construct: Bought recombinant human DLL4 (R&D Systems Cat#1506-D4/CF); also called rHuman DLL4; Delta-like ligand 4

[2] = target: T3, Recombinant Human DLL4 (R&D Systems Cat#1506-D4/CF) (human, UniProt Q9NR61 27-529); test: ECL 96-well plate assay (MSD), 0.1 µM Fab, plate coated with 30 µg/mL DLL4
T3 construct: Bought recombinant protein, coated on the plate; also called delta-like protein 4; rHuman DLL4

[3] = target: T3, Recombinant Human DLL4 (R&D Systems …); test: ECL 96-well plate assay (MSD), 0.02 µM Fab, plate coated with 15 µg/mL DLL4
[4] = target: T4, Recombinant Human DLL4 (R&D Systems Cat#1506-D4/CF) (human, UniProt Q9NR61 27-524); test: ELISA, DLL4 coated on plate, Fab at 100 nM, absorbance at 450 nm
T4 construct: also called delta-like protein 4; rHuman DLL4

[5] = target: T5, rHuman CD44/Fc Chimera, CF (R&D Systems Cat#3660-CD) (human, UniProt P16070 21-220); test: ECL multispot (MSD) binding assay, antigen spotted on plate, Fab 0.04 uM;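 further: purified Fab incubated 1 h at 20 °C on antigen spots, detected via TAG-labelled antibody, ECL read against each well's blank, with signal-to-blank of at least 4 scored as binder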
T5 construct: Bought recombinant protein; Fc part of the bought chimera not given

[6] = target: T6, rHuman P-Cadherin/Fc Chimera, CF (R&D Systems Cat#861-PC) (human, UniProt P22223 108-654); test: as above
T6 construct: Bought recombinant protein; Fc part of the bought chimera not given

[7] = target: T1, rHuman Erythropoietin R/Fc Chimera, CF …; test: as above
[8] = target: T7, Recombinant Human DLL4 (R&D Systems Cat#1506-D4/CF) (human, UniProt Q9NR61 27-524); test: as above
T7 construct: Bought recombinant protein; also called delta-like protein 4; rHuman DLL4

Row | Signal/Noise [2] | Signal/Noise [3] | Binder | further results
1 | 41.5 | 12.5 | Fab VH5-51_IGHD5-18*01>3_IGHJ4*01 G104A & V3-4_IGLJ1*01 (Fab, V domains shown, Heavy chain CDR3 alanine mutant of the parent Fab; Fab format as for the parent) VH: EVQLVQSGAEVKKPGESLKISCKGSGYSFTSYWIGWVRQMPGKGLEWMGIIYPGDSDTRYSPSFQGQVTISADKSISTAYLQWSSLKASDTAMYYCARRGYSYAYDYFDYWGQGTLVTVSS VL: QTVVTQEPSFSVSPGGTVTLTCGLSSGSVSTSYYPSWYQQTPGQAPRTLIYSTNTRSSGVPDRFSGSILGNKAALTITGAQADDESDYYCVLYMGSGISYVFGTGTKVTVL | 
2 | 4.7 | 1.8 | Fab VH5-51_IGHD5-18*01>3_IGHJ4*01 S102A & V3-4_IGLJ1*01 (Fab, V domains shown, Heavy chain CDR3 alanine mutant of the parent Fab; Fab format as for the parent) VH: EVQLVQSGAEVKKPGESLKISCKGSGYSFTSYWIGWVRQMPGKGLEWMGIIYPGDSDTRYSPSFQGQVTISADKSISTAYLQWSSLKASDTAMYYCARRGYAYGYDYFDYWGQGTLVTVSS VL: QTVVTQEPSFSVSPGGTVTLTCGLSSGSVSTSYYPSWYQQTPGQAPRTLIYSTNTRSSGVPDRFSGSILGNKAALTITGAQADDESDYYCVLYMGSGISYVFGTGTKVTVL | 

The remaining lines, values behind:

Row | Binder | Signal/Noise [2] | Signal/Noise [3] | further results
3 | Fab VH5-51_IGHD5-18*01>3_IGHJ4*01 & V3-4_IGLJ1*01 (Fab, V domains shown, Fab expressed in E. coli; VH was cloned into Plasmid A (CH1, His6 and Flag tags) and VL into Plasmid E (lambda CL); also called wildtype; parent Hit Fab VH5-51_IGHD5-18*01>3_IGHJ4*01 & V3-4_IGLJ1*01) VH: EVQLVQSGAEVKKPGESLKISCKGSGYSFTSYWIGWVRQMPGKGLEWMGIIYPGDSDTRYSPSFQGQVTISADKSISTAYLQWSSLKASDTAMYYCARRGYSYGYDYFDYWGQGTLVTVSS VL: QTVVTQEPSFSVSPGGTVTLTCGLSSGSVSTSYYPSWYQQTPGQAPRTLIYSTNTRSSGVPDRFSGSILGNKAALTITGAQADDESDYYCVLYMGSGISYVFGTGTKVTVL |  |  | Signal/Noise (0.04 µM) [1]: 14.7
4 | Fab VH5-51_IGHD5-18*01>3_IGHJ4*01 & V3-4_IGLJ1*01 (Fab, V domains shown, Tested as Fab from E. coli; VH was cloned into Plasmid A, which supplies CH1 and His6 and Flag tags; The lambda VL was cloned into Plasmid E, which supplies lambda CL; also called wildtype; parent Hit Fab VH5-51_IGHD5-18*01_IGHJ4*01 & V3-4_IGLJ1*01) VH: EVQLVQSGAEVKKPGESLKISCKGSGYSFTSYWIGWVRQMPGKGLEWMGIIYPGDSDTRYSPSFQGQVTISADKSISTAYLQWSSLKASDTAMYYCARRGYSYGYDYFDYWGQGTLVTVSS VL: QTVVTQEPSFSVSPGGTVTLTCGLSSGSVSTSYYPSWYQQTPGQAPRTLIYSTNTRSSGVPDRFSGSILGNKAALTITGAQADDESDYYCVLYMGSGISYVFGTGTKVTVL | 24 | 15.2 | 
5 | Fab VH5-51_IGHD5-18*01>3_IGHJ4*01 S102A & V3-4_IGLJ1*01 (Fab, V domains shown, Fab with CH1 (Plasmid A, His6 and Flag tags) and lambda CL (Plasmid E)) VH: EVQLVQSGAEVKKPGESLKISCKGSGYSFTSYWIGWVRQMPGKGLEWMGIIYPGDSDTRYSPSFQGQVTISADKSISTAYLQWSSLKASDTAMYYCARRGYAYGYDYFDYWGQGTLVTVSS VL: QTVVTQEPSFSVSPGGTVTLTCGLSSGSVSTSYYPSWYQQTPGQAPRTLIYSTNTRSSGVPDRFSGSILGNKAALTITGAQADDESDYYCVLYMGSGISYVFGTGTKVTVL |  |  | Signal/Noise (0.04 µM) [1]: 2
6 | Fab VH5-51_IGHD5-18*01>3_IGHJ4*01 G100K/G104T G24T/S28R/G35V (H:KT TRV) & V3-4_IGLJ1*01 S96L (Fab, V domains shown, Tested as Fab expressed in E. coli) VH: EVQLVQSGAEVKKPGESLKISCKTSGYRFTSYWIVWVRQMPGKGLEWMGIIYPGDSDTRYSPSFQGQVTISADKSISTAYLQWSSLKASDTAMYYCARRKYSYTYDYFDYWGQGTLVTVSS VL: QTVVTQEPSFSVSPGGTVTLTCGLSSGSVSTSYYPSWYQQTPGQAPRTLIYSTNTRSSGVPDRFSGSILGNKAALTITGAQADDESDYYCVLYMGLGISYVFGTGTKVTVL |  |  | ELISA Signal-blank (100 nM Fab) [4]: 0.355
7 | Fab VH5-51_IGHD5-18*01>3_IGHJ4*01 G100A & V3-4_IGLJ1*01 (Fab, V domains shown, Heavy chain CDR3 alanine mutant of the parent Fab; Fab format as for the parent) VH: EVQLVQSGAEVKKPGESLKISCKGSGYSFTSYWIGWVRQMPGKGLEWMGIIYPGDSDTRYSPSFQGQVTISADKSISTAYLQWSSLKASDTAMYYCARRAYSYGYDYFDYWGQGTLVTVSS VL: QTVVTQEPSFSVSPGGTVTLTCGLSSGSVSTSYYPSWYQQTPGQAPRTLIYSTNTRSSGVPDRFSGSILGNKAALTITGAQADDESDYYCVLYMGSGISYVFGTGTKVTVL | 53.3 | 24.2 | 
8 | Fab VH5-51_IGHD5-18*01>3_IGHJ4*01 G100K/G104T (H:KT) & V3-4_IGLJ1*01 G95A (Fab, V domains shown, Fab; Expressed from Plasmid A (CH1, His6 and Flag tags) and Plasmid E (lambda CL); also called KT & G95A) VH: EVQLVQSGAEVKKPGESLKISCKGSGYSFTSYWIGWVRQMPGKGLEWMGIIYPGDSDTRYSPSFQGQVTISADKSISTAYLQWSSLKASDTAMYYCARRKYSYTYDYFDYWGQGTLVTVSS VL: QTVVTQEPSFSVSPGGTVTLTCGLSSGSVSTSYYPSWYQQTPGQAPRTLIYSTNTRSSGVPDRFSGSILGNKAALTITGAQADDESDYYCVLYMASGISYVFGTGTKVTVL |  |  | ECL signal [5]: 657; ECL signal [6]: 345; ECL signal [7]: 637; ECL signal [8]: 10400
